Experimental data from FireProtDB (doi:10.1021/bi00174a031).

B1: Phosphoglycerate kinase, P00560 (parent)
chain: MSLSSKLSVQDLDLKDKRVFIRVDFNVPLDGKKITSNQRIVAALPTIKYVLEHHPRYVVLASHLGRPNGERNEKYSLAPVAKELQSLLGKDVTFLNDCVGPEVEAAVKASAPGSVILLENLRYHIEEEGSRKVDGQKVKASKEDVQKFRHELSSLADVYINDAFGTAHRAHSSMVGFDLPQRAAGFLLEKELKYFGKALENPTRPFLAILGGAKVADKIQLIDNLLDKVDSIIIGGGMAFTFKKVLENTEIGDSIFDKAGAEIVPKLMEKAKAKGVEVVLPVDFIIADAFSADANTKTVTDKEGIPAGWQGLDNGPESRKLFAATVAKAKTIVWNGPPGVFEFEKFAAGTKALLDEVVKSSAAGNTVIIGGGDTATVAKKYGVTDKISHVSTGGGASLELLEGKELPGVAFLSEKK

Variants of: B1
Conditions: Saccharomyces cerevisiae (strain ATCC 204508 / S288c), pH 7.5, 25 °C, GdnHCl, Sodium phosphate 20 mM, structure 3PGK, whole UniProt chain shown

Variant | ddG of mutation (higher = less stable) (CD) | denaturant m value (CD) | denaturant midpoint (higher = more stable) (CD) | unfolding free energy (CD) | ddG of mutation (higher = less stable) (Fluorescence) | denaturant m value (Fluorescence) | denaturant midpoint (higher = more stable) (Fluorescence) | unfolding free energy (Fluorescence)
MSLSSKLSVQDLDLKDKRVFIRVDFNVPLDGKKITSNQRIVAALPTIKYVLEHHPRYVVLASHLGRPNGERNEKYSLAPVAKELQSLLGKDVTFLNDCVGPEVEAAVKASAPGSVILLENLRYHIEEEGSRKVDGQKVKASKEDVQKFRHELSSLADVYINDAFGTAHRAHSSMVGFDLPQRAAGFLLEKELKYFGKALENPTRPFLAILGGAKVADKIQLIDNLLDKVDSIIIGGGMAFTFKKVLENTEIGDSIFDKAGAEIVPKLMEKAKAKGVEVVLPVDFIIADAFSADANTKTVTDKEGIPAGWQGLDNGPESRKLFAATVAKAKTIVFNGPPGVFEFEKFAAGTKALLDEVVKSSAAGNTVIIGGGDTATVAKKYGVTDKISHVSTGGGASLELLEGKELPGVAFLSEKK [W334F] | 3.93 kcal/mol | 8.4 kcal/mol/M | 0.63 M | 5.38 kcal/mol |  |  |  | 
MSLSSKLSVQDLDLKDKRVFIRVDFNVPLDGKKITSNQRIVAALPTIKYVLEHHPRYVVLASHLGRPNGERNEKYSLAPVAKELQSLLGKDVTFLNDCVGPEVEAAVKASAPGSVILLENLRYHIEEEGSRKVDGQKVKASKEDVQKFRHELSSLADVYINDAFGTAHRAHSSMVGFDLPQRAAGFLLEKELKYFGKALENPTRPFLAILGGAKVADKIQLIDNLLDKVDSIIIGGGMAFTFKKVLENTEIGDSIFDKAGAEIVPKLMEKAKAKGVEVVLPVDFIIADAFSADANTKTVTDKEGIPAGFQGLDNGPESRKLFAATVAKAKTIVWNGPPGVFEFEKFAAGTKALLDEVVKSSAAGNTVIIGGGDTATVAKKYGVTDKISHVSTGGGASLELLEGKELPGVAFLSEKK [W309F] | 3.63 kcal/mol | 8.4 kcal/mol/M | 0.67 M | 5.68 kcal/mol | 3.71 kcal/mol | 12.8 kcal/mol/M | 0.63 M | 8.04 kcal/mol
MSLSSKLSVQDLDLKDKRVFIRVDFNVPLDGKKITSNQRIVAALPTIKYVLEHHPRYVVLASHLGRPNGERNEKYSLAPVAKELQSLLGKDVTFLNDCVGPEVEAAVKASAPGSVILLENLRYHIEEEGSRKVDGQKVKASKEDVQKFRHELSSLADVYINDAFGTAHRAHSSMVGFDLPQRAAGFLLEKELKYFGKALENPTRPFLAILGGAKVADKIQLIDNLLDKVDSIIIGGGMAFTFKKVLENTEIGDSIFDKAGAEIVPKLMEKAKAKGVEVVLPVDFIIADAFSADANTKTVTDKEGIPAGFQGLDNGPESRKLFAATVAKAKTIVFNGPPGVFEFEKFAAGTKALLDEVVKSSAAGNTVIIGGGDTATVAKKYGVTDKISHVSTGGGASLELLEGKELPGVAFLSEKK [W309F W334F] | 6.33 kcal/mol | 6.1 kcal/mol/M | 0.48 M | 2.98 kcal/mol | 8.72 kcal/mol | 5.9 kcal/mol/M | 0.49 M | 3.03 kcal/mol
